In patent US20170081400A1 (CEPHALON, published 2017):
Numbering of substitutions follows the chain as printed.

T1: human TL1A extracellular domain with N-terminal HIS and FLAG tag (human, UniProt O95150 72-251)
T1 construct: the whole entry is named
T1 sequence: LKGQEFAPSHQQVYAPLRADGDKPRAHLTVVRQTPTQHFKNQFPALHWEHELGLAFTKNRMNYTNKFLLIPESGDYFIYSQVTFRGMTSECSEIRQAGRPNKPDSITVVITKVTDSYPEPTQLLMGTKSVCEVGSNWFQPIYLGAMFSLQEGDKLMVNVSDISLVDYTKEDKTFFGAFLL

T2: human TL1A extracellular domain with N-terminal HIS and FLAG tag (human) (UniProt O95150)
T2 sequence: T1 sequence

B1: 320-313 (antibody, human IgG1, name in Kabat numbering, V domains shown)
VH: QVQLVQSGAEVKKPGASVKVSCKASGYTFTSYDINWVRQAPGQGLEWMGWLNPNSGNTGYAQKFQGRVTMTADRSTSTAYMELSSLRSEDTAVYYCAREVPETAAFEYWGQGTLVTVSS
VL: QSVLTQPPSVSGAPGQRVTISCTSSSSDIGAGLGVHWYQQLPGTAPKLLIEGYYNRPSGVPDRFSGSKSGTSASLTITGLLPEDEGDYYCHSYDGTLSALFGGGTKLTVLG
notes: human IgG1, lambda
B2: 320-442 (antibody, human IgG1, name in Kabat numbering, V domains shown)
VH: B1 VH with Y32H
VL: B1 VL with H91Q
notes: human IgG1, lambda
B3: 320-451 (antibody, human IgG1, name in Kabat numbering, V domains shown)
VH: B1 VH with D33L
VL: B1 VL with H91Q
notes: human IgG1, lambda
B4: 320-432 (antibody, human IgG1, name in Kabat numbering, V domains shown)
VH: B1 VH with S31Q
VL: B1 VL with H91Q
notes: human IgG1, lambda
B5: 320-452 (antibody, human IgG1, name in Kabat numbering, V domains shown)
VH: B1 VH with D33W
VL: B1 VL with H91Q
notes: human IgG1, lambda
B6: 320-326 (antibody, human IgG1, name in Kabat numbering, V domains shown)
VH: B1 VH
VL: B1 VL with H91Q, Y93S
notes: human IgG1, lambda
B7: 320-438 (antibody, human IgG1, name in Kabat numbering, V domains shown)
VH: B1 VH with Y32A
VL: B1 VL with H91Q
notes: human IgG1, lambda
B8: 320-345 (antibody, human IgG1, name in Kabat numbering, V domains shown)
VH: B1 VH
VL: B1 VL with H91Q, G95K
notes: human IgG1, lambda
B9: 320-367 (antibody, human IgG1, name in Kabat numbering, V domains shown)
VH: B1 VH
VL: B1 VL with H91Q, S98H
notes: human IgG1, lambda
B10: 320-368 (antibody, human IgG1, name in Kabat numbering, V domains shown)
VH: B1 VH
VL: B1 VL with H91Q, S98K
notes: human IgG1, lambda
B11: 320-318 (antibody, human IgG1, name in Kabat numbering, V domains shown)
VH: B1 VH
VL: B1 VL with H91Q, S92A
notes: human IgG1, lambda
B12: 320-436 (antibody, human IgG1, name in Kabat numbering, V domains shown)
VH: B1 VH with S31W
VL: B1 VL with H91Q
notes: human IgG1, lambda
B13: 320-366 (antibody, human IgG1, name in Kabat numbering, V domains shown)
VH: B1 VH
VL: B1 VL with H91Q, S98D
notes: human IgG1, lambda
B14: 320-440 (antibody, human IgG1, name in Kabat numbering, V domains shown)
VH: B1 VH with Y32Q
VL: B1 VL with H91Q
notes: human IgG1, lambda
B15: 320-441 (antibody, human IgG1, name in Kabat numbering, V domains shown)
VH: B1 VH with Y32D
VL: B1 VL with H91Q
notes: human IgG1, lambda
B16: 320-328 (antibody, human IgG1, name in Kabat numbering, V domains shown)
VH: B1 VH
VL: B1 VL with H91Q, Y93H
notes: human IgG1, lambda
B17: 320-437 (antibody, human IgG1, name in Kabat numbering, V domains shown)
VH: B1 VH with S31Y
VL: B1 VL with H91Q
notes: human IgG1, lambda
B18: 320-439 (antibody, human IgG1, name in Kabat numbering, V domains shown)
VH: B1 VH with Y32S
VL: B1 VL with H91Q
notes: human IgG1, lambda
B19: 320-369 (antibody, human IgG1, name in Kabat numbering, V domains shown)
VH: B1 VH
VL: B1 VL with H91Q, S98L
notes: human IgG1, lambda
B20: 320-449 (antibody, human IgG1, name in Kabat numbering, V domains shown)
VH: B1 VH with D33H
VL: B1 VL with H91Q
notes: human IgG1, lambda
B21: 320-433 (antibody, human IgG1, name in Kabat numbering, V domains shown)
VH: B1 VH with S31D
VL: B1 VL with H91Q
notes: human IgG1, lambda
B22: 320-371 (antibody, human IgG1, name in Kabat numbering, V domains shown)
VH: B1 VH
VL: B1 VL with H91Q, S98Y
notes: human IgG1, lambda
B23: 320-446 (antibody, human IgG1, name in Kabat numbering, V domains shown)
VH: B1 VH with D33A
VL: B1 VL with H91Q
notes: human IgG1, lambda
B24: 320-435 (antibody, human IgG1, name in Kabat numbering, V domains shown)
VH: B1 VH with S31L
VL: B1 VL with H91Q
notes: human IgG1, lambda
B25: 320-314 (antibody, human IgG1, name in Kabat numbering, V domains shown)
VH: B1 VH
VL: B1 VL with H91K
notes: human IgG1, lambda
B26: 320-444 (antibody, human IgG1, name in Kabat numbering, V domains shown)
VH: B1 VH with Y32L
VL: B1 VL with H91Q
notes: human IgG1, lambda
B27: 320-365 (antibody, human IgG1, name in Kabat numbering, V domains shown)
VH: B1 VH
VL: B1 VL with H91Q, S98Q
notes: human IgG1, lambda
B28: 320-434 (antibody, human IgG1, name in Kabat numbering, V domains shown)
VH: B1 VH with S31K
VL: B1 VL with H91Q
notes: human IgG1, lambda
B29: 320-370 (antibody, human IgG1, name in Kabat numbering, V domains shown)
VH: B1 VH
VL: B1 VL with H91Q, S98W
notes: human IgG1, lambda
B30: 320-453 (antibody, human IgG1, name in Kabat numbering, V domains shown)
VH: B1 VH with D33Y
VL: B1 VL with H91Q
notes: human IgG1, lambda
B31: 320-447 (antibody, human IgG1, name in Kabat numbering, V domains shown)
VH: B1 VH with D33S
VL: B1 VL with H91Q
notes: human IgG1, lambda

Experiments:
[1] = biological target: T1, human TL1A extracellular domain with …; assay: SPR Run 4, purified Ab captured on Protein A, TL1A 5 ug/mL, timepoint 44
Excerpt: (§1) 1.5. Antibody expression and antigen binding as determined by SPR. Using a CM5 sensor chip (GE Healthcare) Protein A (Pierce) was coupled to the chip surface using an amine coupling kit (GE Healthcare). Protein A was coupled on flow cell 1 and 2 (or alternatively 3 and 4) using a BIACORE® T200. […] The amount of supernatant or purified protein (as well as the concentration) injected during the capture stage varied between runs and is specified in the header of the Tables 3-11. At the end of injection of the supernatant or purified antibody the change in response units was measured. This value was reported as Capture Level in Tables 3-11. […] The response units were measured prior to the end of the dissociation phase. […] The sensorgrams were double referenced (flow cell 2 is subtracted from flow cell 1 and a buffer blank). As there were a large number of antibody variants to screen, these were screened across different runs (Tables 3-11). […] A summary of the conditions used in each run is below:
(§2) 2.1. […] In some experiment the antibodies were purified using Protein A chromatography (See 1.4) and purified antibodies were used in BIACORE® (GE Healthcare) experiments.

[2] = biological target: T2, human TL1A extracellular domain with N-terminal HIS and FLAG tag (human); assay: cell-based or functional assay
[3] = biological target: T1, human TL1A extracellular domain with …; assay: SPR Run 4, purified Ab captured on Protein A, TL1A 5 ug/mL, timepoint 220
Excerpt: as §1, §2

[4] = biological target: T1, human TL1A extracellular domain with …; assay: SPR Run 6, purified Ab captured on Protein A, TL1A 5 ug/mL, timepoint 170
Excerpt: as §1, §2

[5] = biological target: T1, human TL1A extracellular domain with …; assay: SPR Run 6, purified Ab captured on Protein A, TL1A 5 ug/mL, timepoint 44
Excerpt: as §1, §2

| Binder | TL1A Binding Level (Early) [1] | Antibody IC50, TL1A induced caspase potency assay in TF-1 cells [2] | Fold improvement over 320-179, TL1A induced caspase potency assay in TF-1 cells [2] | TL1A Binding Level (Late) [3] | TL1A Binding Level (Late) [4] | TL1A Binding Level (Early) [5] |
| --- | --- | --- | --- | --- | --- | --- |
| B1 | 141 RU | 0.02 µg/mL | 2 fold | 132 RU | – | – |
| B2 | – | – | – | – | 113 RU | 124 RU |
| B3 | – | – | – | – | 8 RU | 19 RU |
| B4 | – | – | – | – | 106 RU | 116 RU |
| B5 | – | – | – | – | 78 RU | 84 RU |
| B6 | 126 RU | 0.03 µg/mL | 2 fold | 120 RU | – | – |
| B7 | – | – | – | – | 116 RU | 126 RU |
| B8 | 163 RU | 0.02 µg/mL | 1 fold | 154 RU | – | – |
| B9 | 119 RU | – | – | 116 RU | – | – |
| B10 | 50 RU | – | – | 26 RU | – | – |
| B11 | 160 RU | 0.02 µg/mL | 3 fold | 149 RU | – | – |
| B12 | – | – | – | – | 118 RU | 129 RU |
| B13 | 62 RU | – | – | 31 RU | – | – |
| B14 | – | – | – | – | 97 RU | 108 RU |
| B15 | – | – | – | – | 67 RU | 80 RU |
| B16 | 155 RU | 0.02 µg/mL | 1 fold | 146 RU | – | – |

| Binder | TL1A Binding Level (Early) [1] | Antibody IC50, TL1A induced caspase potency assay in TF-1 cells [2] | Fold improvement over 320-179, TL1A induced caspase potency assay in TF-1 cells [2] | TL1A Binding Level (Late) [3] | TL1A Binding Level (Late) [4] | TL1A Binding Level (Early) [5] |
| --- | --- | --- | --- | --- | --- | --- |
| B17 | – | – | – | – | 109 RU | 119 RU |
| B18 | – | – | – | – | 108 RU | 119 RU |
| B19 | 89 RU | – | – | 60 RU | – | – |
| B20 | – | – | – | – | 59 RU | 76 RU |
| B21 | – | – | – | – | 83 RU | 90 RU |
| B22 | 92 RU | – | – | 70 RU | – | – |
| B23 | – | – | – | – | 8 RU | 18 RU |
| B24 | – | – | – | – | 83 RU | 92 RU |
| B25 | 165 RU | 0.02 µg/mL | 2 fold | 158 RU | – | – |
| B26 | – | – | – | – | 95 RU | 107 RU |
| B27 | 141 RU | – | – | 128 RU | – | – |
| B28 | – | – | – | – | 113 RU | 125 RU |
| B29 | 66 RU | – | – | 39 RU | – | – |
| B30 | – | – | – | – | 104 RU | 111 RU |
| B31 | – | – | – | – | 13 RU | 37 RU |
